Our source for the ratio to parent values is PMC8041770 (2021).

Sequences and labels used below:
B1: yeast-displayed wild-type human LIFR CBM I–Ig-like domains (Gln45 to Gln337) [human] / recombinant human LIF, histidine-tagged (hLIF-His) [human] (parent complex)
chain 1: QKKGAPHDLKCVTNNLQVWNCSWKAPSGTGRGTDYEVCIENRSRSCYQLEKTSIKIPALSHGDYEITINSLHDFGSSTSKFTLNEQNVSLIPDTPEILNLSADFSTSTLYLKWNDRGSVFPHRSNVIWEIKVLRKESMELVKLVTHNTTLNGKDTLHHWSWASDMPLECAIHFVEIRCYIDNLHFSGLEEWSDWSPVKNISWIPDSQTKVFPQDKVILVGSDITFCCVSQEKVLSALIGHTNCPLIHLDGENVAIKIRNISVSASSGTNVVFTTEDNIFGTVIFAGYPPDTPQ
chain 2: not shown

The variants in this experiment derive from B1. As to the kind of experiment: flow cytometry of yeast-displayed LIFR variants; parent: 1; read off a plot. On the technique in general: Flow cytometry measures light scatter and fluorescence of single cells or particles in a stream.
For chain 1 L218P, chain 1 H240R, chain 1 N242D, chain 1 I257V, chain 1 I260V, chain 1 V262A, chain 1 T273I, chain 1 N277D, the ratio to parent was roughly 13. On to chain 1 L218P, chain 1 H240R, chain 1 I257V, chain 1 V262A, chain 1 T273I, chain 1 N277D, for which the ratio to parent was roughly 12.

Regarding chain 1 I217V, chain 1 L218P, chain 1 N242D, chain 1 I257V, chain 1 I260V, chain 1 V262A, chain 1 T273I, chain 1 N277D, the ratio to parent is roughly 12. With chain 1 L218P, chain 1 H240R, chain 1 I257V, chain 1 I260V, chain 1 V262A, chain 1 T273I, chain 1 N277D the figure was roughly 15. The figure for chain 1 I217V, chain 1 L218P, chain 1 N242D, chain 1 V262A, chain 1 T273I, chain 1 N277D is roughly 6; for chain 1 I217V, chain 1 L218P, chain 1 H240R, chain 1 N242D, chain 1 I257V, chain 1 I260V, chain 1 V262A, chain 1 T273I, chain 1 N277D it is roughly 13. For chain 1 L218P, chain 1 N242D, chain 1 I257V, chain 1 N277D, the ratio to parent was roughly 6.
